Results taken from patent publication US20250026852A1 (Chugai, published 2025).

T1: human CD3ed-Fc (human)
T1 construct: Biotinylated in culture by BirA; also called biotin-labeled protein containing human CD3 epsilon and human CD3 delta linked to a human antibody constant region; CD3 heterodimer fused with the antibody constant region
T1 chain 1: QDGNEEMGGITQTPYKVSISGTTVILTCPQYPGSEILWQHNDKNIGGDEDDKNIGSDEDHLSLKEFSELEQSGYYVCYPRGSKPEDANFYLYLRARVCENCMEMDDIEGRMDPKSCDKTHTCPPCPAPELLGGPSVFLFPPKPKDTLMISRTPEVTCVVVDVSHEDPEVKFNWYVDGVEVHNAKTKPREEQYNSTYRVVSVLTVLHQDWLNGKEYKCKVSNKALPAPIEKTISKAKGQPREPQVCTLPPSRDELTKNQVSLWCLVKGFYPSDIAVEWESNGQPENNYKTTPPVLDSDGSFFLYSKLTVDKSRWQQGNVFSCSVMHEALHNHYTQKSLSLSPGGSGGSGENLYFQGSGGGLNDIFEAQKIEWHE
T1 chain 2: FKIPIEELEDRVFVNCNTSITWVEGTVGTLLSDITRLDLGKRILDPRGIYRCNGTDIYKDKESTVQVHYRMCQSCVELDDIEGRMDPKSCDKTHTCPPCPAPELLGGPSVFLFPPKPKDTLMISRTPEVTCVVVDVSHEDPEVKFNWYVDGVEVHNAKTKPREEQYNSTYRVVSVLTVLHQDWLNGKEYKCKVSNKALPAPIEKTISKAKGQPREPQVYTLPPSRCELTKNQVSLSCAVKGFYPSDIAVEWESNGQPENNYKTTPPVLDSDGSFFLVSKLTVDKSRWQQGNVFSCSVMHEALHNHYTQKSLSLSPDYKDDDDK

B1: bC3edL1R1N164H01 (VHH)
VHH: QVQLVESGGGLVQPGGSLRLSCAASGFTFDVYGMSWVRHSPGKGLEWVSTINWNGGSTYYAESMKGRFTISRDNAKNTVYLQMNSLKPEDTAVYYCAKFAPWDGDMEWGQGTQVTVSG
B2: bC3edL1R1N164H01-G1mISHI01/VK1-39-k0MT after protease (MT-SP1) treatment (VHH)
VHH: B1 VHH
notes: also called released VHH; not shown: residues of the protease cleavage site left at the C terminus
B3: soluble human IL-6R (receptor)
chain: LAPRRCPAQEVARGVLTSLPGDSVTLTCPGVEPEDNATVHWVLRKPAAGSHPSRWAGMGRRLLLRSVQLHDSGNYSCYRAGRPAGTVHLLVDVPPEEPQLSCFRKSPLSNVVCEWGPRSTPSLTTKAVLLVRKFQNSPAEDFQEPCQYSQESQKFSCQLAVPEGDSSFYIVSMCVASSVGSKFSKTQTFQGCGILQPDPPANITVTAVARNPRWLSVTWQDPHSWNSSFYRLRFELRYRAERSKTFTTWMVKDLQHHCVIHDAWSGLRHVVQLRAQEEFGQGEWSEWSPEAMGTPWTESRSPPAENEVSTPMQALTTNKDDDNILFRDSANATSLPVQ
notes: also called hsIL-6R; recombinant human IL-6R
B4: bC3edL1R1N161H01 (VHH)
VHH: QVQLVESGGGLVQPGGSLRLSCAASGFPFDNYVMSWVRQAPGKGLEWISAISWNGGSTYYAESMKGRFTISRDNAKSTLYLQMNSLKSEDTAVYYCAKEPRVYYSGSPDYWGQGTQVTVSG
B5: bC3edL1R1N161H01-G1mISHI01/VK1-39-k0MT after protease (MT-SP1) treatment (VHH)
VHH: B4 VHH
notes: as for B2
B6: bC3edL1R1N160H01 (VHH)
VHH: QVQLVESGGGLVQPGGSLRLSCAASGFTFNHCWMYWVRQAPGKGLEWVSVINTDGGSAYYADSVKGRFTISRDNAKNTLYLQMNSLKSEDTAVYYCARDWAPLVDYYYGMDYWGKGTLVTVSG
B7: bC3edL1R1N160H01-G1mISHI01/VK1-39-k0MT after protease (MT-SP1) treatment (VHH)
VHH: B6 VHH
notes: as for B2

Key:
human CD3ed-Fc [1] = molecular target: T1, human CD3ed-Fc; assay: phage display: ELISA / panning of the immunized-alpaca VHH library (Example 5-1 or 5-2)
human CD3ed-Fc [2] = molecular target: T1, human CD3ed-Fc; assay: BLI (Octet RED), human CD3ed-Fc on the sensor, protease-treated molecule as analyte
Procedure: The protease concentration was set to 25 nM, and Octet RED (Pall ForteBio Corp.) was used in the assay.
Next, the CD3 binding evaluation of VHH released by protease treatment was conducted in the same way as in Example 3.

20A11hu-G1m/VK2-28-k0MT = molecular target: T2, 20A11hu-G1m/VK2-28-k0MT (Homo sapiens (Human), UniProt P0DOX5 2-447 = IgG part); assay: BLI (Octet), in the same way as in Example 3, 30 C or 25 C
T2 construct: IgG antibody-like molecule; VHH 20A11hu in place of VH
Procedure: Next, the IL-6R binding evaluation of VHH released by protease treatment was conducted at 30° C. or 25° C. in the same way as in Example 3.

IL6R90-G1m/lamL = molecular target: T3, IL6R90-G1m/lamL (Homo sapiens (Human), UniProt P0DOY2 1-106); assay: BLI (Octet HTX), molecule captured on Protein A biosensor, hsIL-6R as analyte, 30 C
T3 construct: IgG antibody-like molecule; VHH IL6R90 in place of VH
Procedure: (§1) The hsIL-6R binding evaluation of each molecule was conducted using Octet HTX (Pall ForteBio Corp.). Specifically, each molecule was allowed to bind to Biosensor/Protein A (ProA) (Pall ForteBio Corp., 18-5013), and hsIL-6R was allowed to act thereon, followed by binding evaluation at 30° C.

IL6R90-G1m/VK2-28-k0MT = molecular target: T4, IL6R90-G1m/VK2-28-k0MT; assay: as above
T4 construct: IgG antibody-like molecule; VHH IL6R90 in place of VH
Procedure: as §1

20A11-G1m/VK2-28-k0MT = molecular target: T5, 20A11-G1m/VK2-28-k0MT; assay: BLI (Octet), in the same way as in Example 3
T5 construct: IgG antibody-like molecule; VHH 20A11 in place of VH
T5 sequence (heavy, as listed by the source, chain 1 of 2): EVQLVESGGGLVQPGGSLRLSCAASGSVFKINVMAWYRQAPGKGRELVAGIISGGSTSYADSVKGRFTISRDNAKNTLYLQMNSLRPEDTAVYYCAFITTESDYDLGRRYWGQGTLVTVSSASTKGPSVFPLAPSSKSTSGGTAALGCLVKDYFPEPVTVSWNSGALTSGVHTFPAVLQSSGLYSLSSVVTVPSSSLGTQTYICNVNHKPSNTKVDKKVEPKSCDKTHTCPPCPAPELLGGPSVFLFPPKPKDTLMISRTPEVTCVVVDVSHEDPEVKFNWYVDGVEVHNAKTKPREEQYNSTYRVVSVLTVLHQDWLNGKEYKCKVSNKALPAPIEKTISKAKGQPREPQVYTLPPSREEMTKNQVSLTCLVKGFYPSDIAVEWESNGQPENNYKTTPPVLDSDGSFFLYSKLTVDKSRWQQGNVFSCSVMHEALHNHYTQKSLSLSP
T5 sequence (light, as listed by the source, chain 2 of 2): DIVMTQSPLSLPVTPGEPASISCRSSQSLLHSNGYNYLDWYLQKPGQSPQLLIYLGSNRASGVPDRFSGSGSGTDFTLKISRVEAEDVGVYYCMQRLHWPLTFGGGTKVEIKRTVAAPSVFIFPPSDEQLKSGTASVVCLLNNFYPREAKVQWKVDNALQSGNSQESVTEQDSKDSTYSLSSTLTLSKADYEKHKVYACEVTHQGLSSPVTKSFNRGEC

T2 sequence (P0DOX5 other isoform, or with tags, fused parts or gaps, chain 1 of 2): as the sequence (heavy, as listed by the source, chain 1 of 2) above, with Y37V, R45L, L47W counted along it
T2 sequence (light, as listed by the source, chain 2 of 2): as the sequence (light, as listed by the source, chain 2 of 2) above
T4 sequence (light, as listed by the source, chain 2 of 2, other chains not shown): as the sequence (light, as listed by the source, chain 2 of 2) above

| Binder | binding result (human CD3ed-Fc [1]) | binding result (human CD3ed-Fc [2]) | also measured |
| --- | --- | --- | --- |
| B1 | binds |  |  |
| B2 |  | binds |  |
| B3 |  |  | binding result (20A11hu-G1m/VK2-28-k0MT): no binding; binding result (IL6R90-G1m/lamL): binds; binding result (IL6R90-G1m/VK2-28-k0MT): no binding; binding result (20A11-G1m/VK2-28-k0MT): binds |
| B4 | binds |  |  |
| B5 |  | binds |  |
| B6 | binds |  |  |
| B7 |  | binds |  |
